Assays:
[1] = target: T1, human ANGPTL3 (human, UniProt Q9Y5C1 17-460); test: HDX-MS; purified ANGPTL3/8 complex (12 uM) against ANGPTL3 alone (15 uM) and ANGPTL8 alone (15 uM); pH 7.4, 10 mM sodium phosphate, 150 mM NaCl, 15 C; 10 s, 2 min, 10 min, 60 min; triplicate; details: both partners purified
T1 construct: angiopoietin-like protein 3 (ANGPTL3), human; 460-amino acid protein, CCD 17-210, linker, FLD 241-460; also called free ANGPTL3; ANGPTL3 alone; source: generated as previously described (22, 44)
T1 sequence (looked up): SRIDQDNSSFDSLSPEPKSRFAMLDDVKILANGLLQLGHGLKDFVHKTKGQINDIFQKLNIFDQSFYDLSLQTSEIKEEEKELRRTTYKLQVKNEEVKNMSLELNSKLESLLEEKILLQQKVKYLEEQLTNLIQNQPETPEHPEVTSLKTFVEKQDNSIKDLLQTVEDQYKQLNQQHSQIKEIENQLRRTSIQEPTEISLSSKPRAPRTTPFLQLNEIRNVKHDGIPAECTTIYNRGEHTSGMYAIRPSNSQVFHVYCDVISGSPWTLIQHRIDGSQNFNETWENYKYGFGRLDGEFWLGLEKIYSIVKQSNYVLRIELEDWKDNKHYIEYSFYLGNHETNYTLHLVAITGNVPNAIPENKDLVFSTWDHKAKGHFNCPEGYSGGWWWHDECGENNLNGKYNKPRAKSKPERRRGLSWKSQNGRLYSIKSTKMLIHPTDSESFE

[2] = target: T2, ANGPTL8 cotransfected with ANGPTL3 and the anti-ANGPTL3/8 antibody Fab in CHO cells (UniProt Q6UXH0 22-198); test: negative stain transmission electron microscopy; ANGPTL3, ANGPTL8 and anti-ANGPTL3/8 antibody Fab cotransfected in CHO cells; sample diluted 100-fold into TBS, uranyl formate stain; 2D class averaging in three rounds
T2 construct: angiopoietin-like protein 8 (ANGPTL8); Used only for negative stain TEM; source: CHO cells, cotransfected with ANGPTL3 and an anti-ANGPTL3/8 antibody Fab
T2 sequence (looked up): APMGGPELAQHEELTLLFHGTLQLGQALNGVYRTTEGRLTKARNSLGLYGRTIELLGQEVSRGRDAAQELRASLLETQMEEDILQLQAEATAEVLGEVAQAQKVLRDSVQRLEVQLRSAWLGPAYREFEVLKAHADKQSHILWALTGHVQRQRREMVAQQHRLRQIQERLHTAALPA

[3] = target: the molecule itself; test: as above

B1: human ANGPTL8 as it stands in the ANGPTL3/8 complex (HSA fusion partner removed) (natural protein, UniProt Q6UXH0 22-198, looked up)
chain: T2 sequence (looked up)
notes: angiopoietin-like protein 8 (ANGPTL8), human; 198-amino acid protein; same expression construct as HIS-HSA-ANGPTL8; also called ANGPTL8 complexed with ANGPTL3; source: part of the ANGPTL3/8 complex generated as previously described (22, 44); HSA fusion partner removed by proteolysis; not shown: His, N-terminal, cleaved; HSA, N-terminal, cleaved
[1]
  binding result: binds

B2: ANGPTL3 cotransfected with ANGPTL8 and the anti-ANGPTL3/8 antibody Fab in CHO cells (natural protein, UniProt Q9Y5C1 17-460, looked up)
chain: T1 sequence (looked up)
notes: angiopoietin-like protein 3 (ANGPTL3); Used only for negative stain TEM; source: CHO cells, cotransfected with ANGPTL8 and an anti-ANGPTL3/8 antibody Fab
[2]
  stoichiometry N: 3 ANGPTL3 per ANGPTL8
[3]
  stoichiometry N: 3

Reference: publication PMC9036128, “An anti-ANGPTL3/8 antibody decreases circulating triglycerides by binding to a LPL-inhibitory leucine zipper-like motif” (Journal of Lipid Research, 2022)
